# Results reported in patent US20230134571A1 (INTERNATIONAL AIDS VACCINE INITIATIVE, published 2023).
# B1: ePGDM5 (antibody, V domains shown)
# VH: QAQLVQSGPEVRKPGTSVKVSCKNPGNTLTTYDLHWVRQVPGQGLQWMGWISHEGDKKVIVERFKAKVTIDWDRSTNTAYLQLSGLTSEDTAVYYCAKGSKHRLRDYALYDEDGALNWAVDVDYLANLEFWGQGTAVTVSS
# VL: DFVLTQSPLSLSVTPGESASISCKSDHSLQHGDRNNYLAWYVQKPGRSPQLLIDLASERASGVPDRFSGSGSRKDFTLKIDRVEAEDVGTYYCMQGRESPWTFGQGTKVDIK
# B2: ePGDM13 (antibody, V domains shown)
# VH: QAQLVQSGPEVRKPGTSVKVSCKNPGNTLTTYDLHWVRQVPGQGLQWMGWISHEGDKKVIVERFKAKVTIDWDRSTNTAYLQLSGLTSEDTAVYYCAKGSKHRLRDYALYDEDGALNWAVDVDYLANLEFWGQGTAVTVSS
# VL: DIVLTQSPLSLSVTPGESASISCKSSHSLQHGDRNNYLAWYVQKPGRSPQLLLDLASERASGVPDRFSGSGSEKDFTLKISRVETEDVGTYYCMQGRESPWTFGQGTKVDIK
# B3: PGDM1400 (antibody, V domains shown)
# VH: QVHLTQSGPEVRKPGTSVKVSCKAPGNTLKTYDLHWVRSVPGQGLQWMGWISHEGDKKVIVERFKAKVTIDWDRSTNTAYLQLSGLTSGDTAVYYCAKGSKHRLRDYALYDDDGALNWAVDVDYLSNLEFWGQGTAVTVSS
# VL: DFVLTQSPHSLSVTPGESASISCKSSHSLIHGDRNNYLAWYVQKPGRSPQLLIYLASSRASGVPDRFSGSGSDKDFTLKISRVETEDVGTYYCMQGRESPWTFGQGTKVDIK
# Tests used:
# Assay in all cases: cell-based or functional assay
# [1] = target: HIV Env, isolate P1981_C5_3 (HIV)
# [2] = target: HIV Env, isolate 6240_08_TA5_4622 (HIV)
# [3] = target: HIV Env, isolate CAP210.2.00.E8 (HIV)
# [4] = target: HIV Env, isolate T263-8 (HIV)
# [5] = target: HIV Env, isolate 1006_11_C3_1601 (HIV)
# [6] = target: HIV Env, isolate CAAN5342.A2 (HIV)
# [7] = target: HIV Env, isolate SC422661.8 (HIV)
# [8] = target: HIV Env, isolate Ce1172_H1 (HIV)
# [9] = target: HIV Env, isolate Du172.17 (HIV)
# [10] = target: HIV Env, isolate 3817.v2.c59 (HIV)
# [11] = target: HIV Env, isolate 1056_10_TA11_1826 (HIV)
# [12] = target: HIV Env, isolate ZM214M.PL15 (HIV)
# [13] = target: HIV Env, isolate HIV-0013095-2.11 (HIV)
# [14] = target: HIV Env, isolate X2088_C9 (HIV)
# [15] = target: HIV Env, isolate CNE58 (HIV)
# [16] = target: HIV Env, isolate SC05_8C11_2344 (HIV)
Binder,IC80 (µg/ml) with constrains [1],IC80 (µg/ml) with constrains [2],IC80 (µg/ml) with constrains [3],IC80 (µg/ml) with constrains [4],IC80 (µg/ml) with constrains [5],IC80 (µg/ml) with constrains [6],IC80 (µg/ml) with constrains [7],IC80 (µg/ml) with constrains [8],IC80 (µg/ml) with constrains [9],IC80 (µg/ml) with constrains [10],IC80 (µg/ml) with constrains [11],IC80 (µg/ml) with constrains [12],IC80 (µg/ml) with constrains [13],IC80 (µg/ml) with constrains [14],IC80 (µg/ml) with constrains [15],IC80 (µg/ml) with constrains [16]
B1,1.18 µg/mL,8.09 µg/mL,0.226 µg/mL,0.076 µg/mL,1.89 µg/mL,> 100 µg/mL,5.33 µg/mL,0.065 µg/mL,5.98 µg/mL,0.929 µg/mL,3.57 µg/mL,> 100 µg/mL,> 100 µg/mL,> 100 µg/mL,0.015 µg/mL,14.5 µg/mL
B2,1.28 µg/mL,12.6 µg/mL,0.538 µg/mL,0.101 µg/mL,3.3 µg/mL,> 100 µg/mL,6.26 µg/mL,0.242 µg/mL,6 µg/mL,55.9 µg/mL,6.03 µg/mL,> 100 µg/mL,> 100 µg/mL,> 100 µg/mL,0.014 µg/mL,9.44 µg/mL
B3,75.6 µg/mL,> 100 µg/mL,1.32 µg/mL,0.081 µg/mL,7.43 µg/mL,> 100 µg/mL,62.8 µg/mL,0.872 µg/mL,21.7 µg/mL,> 100 µg/mL,13.5 µg/mL,> 100 µg/mL,> 100 µg/mL,> 100 µg/mL,0.01 µg/mL,17.8 µg/mL
